The values below come from US5969101.

Assay [1] has as its target c-Abl wild type, full length.

With “HA-tagged Abi-2Δ1-157 (pCGN/abi-2Δ1-157)”, the No. of Agar Colonies (per 10^4 cells) (agar colonies per 10^4 cells) with c-Abl K290R stood at 3; in assay [1], 563.

Regarding “HA-tagged Abi-2Δ1-100 (pCGN/abi-2Δ1-100)”, the relative transforming activity, colonies in soft agar of Rat1/P185 BCR-Abl cells in the assay with P185 BCR-Abl is 70%.
